From paper PMC10987413

What follows are substances tested against GST-DCL3 F5 (UniProt Q9LXW7) (assay: MST). Settings: MST: 50 mM Tris-HCl pH 7.4, 150 mM NaCl, 10 mM MgCl2, 0.01% Tween 20, 100 nM RED-NHS labelled protein, incubation 5 min at room temperature (instrument printed …).
Chain of UniProt Q9LXW7 (Q9LXW7 whole entry): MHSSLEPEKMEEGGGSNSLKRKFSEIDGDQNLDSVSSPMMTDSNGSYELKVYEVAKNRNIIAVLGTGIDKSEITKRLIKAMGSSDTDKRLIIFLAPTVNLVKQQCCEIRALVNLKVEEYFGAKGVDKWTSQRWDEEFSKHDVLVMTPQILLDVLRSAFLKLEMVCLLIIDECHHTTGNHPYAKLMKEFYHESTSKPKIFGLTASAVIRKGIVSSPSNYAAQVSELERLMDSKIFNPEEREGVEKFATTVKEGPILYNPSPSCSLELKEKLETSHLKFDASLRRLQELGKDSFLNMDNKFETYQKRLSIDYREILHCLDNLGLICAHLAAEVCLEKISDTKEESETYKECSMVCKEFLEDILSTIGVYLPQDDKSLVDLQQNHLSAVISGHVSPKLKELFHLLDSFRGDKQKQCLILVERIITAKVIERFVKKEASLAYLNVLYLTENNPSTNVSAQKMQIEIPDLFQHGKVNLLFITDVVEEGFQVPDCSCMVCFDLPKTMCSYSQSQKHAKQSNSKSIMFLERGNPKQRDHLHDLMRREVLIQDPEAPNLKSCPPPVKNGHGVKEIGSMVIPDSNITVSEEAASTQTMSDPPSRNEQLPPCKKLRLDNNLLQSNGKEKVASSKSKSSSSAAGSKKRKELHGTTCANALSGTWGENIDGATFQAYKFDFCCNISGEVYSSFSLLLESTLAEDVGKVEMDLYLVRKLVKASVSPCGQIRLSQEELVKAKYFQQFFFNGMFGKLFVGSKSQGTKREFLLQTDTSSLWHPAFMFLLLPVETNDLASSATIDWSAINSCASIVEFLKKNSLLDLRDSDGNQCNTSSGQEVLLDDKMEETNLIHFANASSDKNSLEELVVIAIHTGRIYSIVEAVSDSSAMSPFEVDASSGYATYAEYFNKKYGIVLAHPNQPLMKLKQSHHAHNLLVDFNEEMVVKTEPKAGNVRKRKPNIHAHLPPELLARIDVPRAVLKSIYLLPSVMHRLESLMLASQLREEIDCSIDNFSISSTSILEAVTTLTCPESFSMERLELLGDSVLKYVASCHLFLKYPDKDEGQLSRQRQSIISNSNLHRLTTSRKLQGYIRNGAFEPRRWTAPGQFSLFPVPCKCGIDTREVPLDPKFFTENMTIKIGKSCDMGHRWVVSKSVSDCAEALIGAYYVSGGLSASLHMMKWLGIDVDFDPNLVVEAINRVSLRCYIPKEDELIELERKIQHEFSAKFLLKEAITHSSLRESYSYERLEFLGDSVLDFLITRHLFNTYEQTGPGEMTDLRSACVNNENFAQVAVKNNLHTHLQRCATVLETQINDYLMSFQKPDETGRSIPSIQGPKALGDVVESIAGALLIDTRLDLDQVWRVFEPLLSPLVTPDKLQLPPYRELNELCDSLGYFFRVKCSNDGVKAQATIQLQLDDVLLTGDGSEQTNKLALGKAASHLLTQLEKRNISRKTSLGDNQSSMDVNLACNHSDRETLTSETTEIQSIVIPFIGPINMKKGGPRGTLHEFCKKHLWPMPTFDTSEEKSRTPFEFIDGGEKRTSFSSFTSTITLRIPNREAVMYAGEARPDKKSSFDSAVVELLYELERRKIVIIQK

Substance | Kd [nM]
UGAAUUUCUGGUAUGGGUCCCGCC / CGGGACCCAUACCAGAAAUUCAUC [24-bp ds-sRNA (dsAtSN1)] | 553
21-nt ss-sRNA | 1870
UCGCUUGGUGCAGGUCGGGAA / CCCGCCUUGCAUCAACUGAAU [miR168a duplex] | 1060
24-nt ss-sRNA | 1220
AGAAUCUUGAUGAUGCUGCAU / GUGGCAUCAUCAAGAUUCACA [miR172a duplex] | 927
UACAAGACACGUGCUGAAGUCAAGUUUGAGGGAACACCCUCGUCAACAGGAUCG / AUCCUGUUGACGAGGGUGUCUCCCUCAAACUUGACUUCAGCACGUGUCUUGUAGU [55-bp ds-sRNA] | 582
55-nt ss-sRNA | 1160
UCAACAGGAUCGAGCUUAAGG / UUAAGCUCGAUCCUGUUGACG [21-bp ds-sRNA (ds siRGFP)] | 575
